The record followed here is US20030186334A1, “KTS-disintegrins” (Temple University - Of the Commonwealth System of Higher …, priority 2001, published 2003).

Test [1] has as its system melanoma cells (HS.939T). As to the kind of experiment: BrdU incorporation growth assay in HS.939T melanoma cells. The settings on record: 2 μM. In kind it is cell-based, human. The method, then: Human microvascular endothelial cells (HMVECs) and melanoma cells (HS.939T) were cultured and treated with vehicle (control), 2 μM obtustatin, 2 μM echistatin or 50 ng/ml TNF-α. Growth of the cells was determined by a standard BrdU incorporation assay (Chemicon), according to the manufacturer's instructions.

Test [2] deals with T1, α5β1 integrin (Homo sapiens, UniProt P05556+P08648).
T1 construct: endogenous in cells; host or cells: K562 cells
As to the kind of experiment: adhesion of K562 cells to fibronectin. In kind it is cell-based. The method, then: (§1) Adhesive ligands for the selected integrins consisted of collagen IV (0.2 μg/well), collagen I, fibronectin, or vascular cell adhesion molecule-1 (VCAM-1). Adhesive ligands in 0.02 M acetic acid were immobilized overnight at 4° C. on a 96-well plate. Plates were then blocked with 1% (w/v) BSA (bovine serum albumin) in Hank's Balanced Salt Solution (HBSS) containing 3 mM Mg^2+ at room temperature for 1-2 hours to prevent cells from non-specifically binding to the plates. α1K562, α2K562, K562, A5, and Jurkat cells expressing the α1β1, α2β1, α5β1, αIIbβ3, and α4β1 integrins respectively were labeled by incubation with 12.5 μM 5-chloromethylfluorescein diacetate (CMFDA) in HBSS for 15 minutes at 37° C. CMFDA labeled cells were then pelleted, washed and resuspended in HBSS buffer containing 3 mM Mg^2+ and 1% (w/v) BSA. […] Plates were then incubated at 37° C. for 30 minutes as indicated in Table 5 and washed three times with HBSS containing 3 mM Mg^2+ and 1% (w/v) BSA to remove unbound cells. Bound cells were lysed using 0.5% (v/v) Triton X-100 in H2O. Fluorescent CMFDA released by lysis of adherent cells in a given well was read using a Cytofluor 2350 fluorescence plate reader.
(§2) The effect of obtustatin, viperisrastatin, echistatin, and eristostatin on the binding of selected integrins to their adhesive ligands was evaluated using the cell adhesion assay described in Example 6. The integrin-expressing cells, integrins and corresponding adhesive ligands, and the results of the cell adhesion assay are shown in Table 6.

Test [3] concerns the target T2, α1β1 integrin (Homo sapiens, UniProt P05556+P56199).
T2 construct: expressed in transfected cells; host or cells: α1K562 cells
As to the kind of experiment: adhesion of P1E6 blocked MV3 cells to immobilized collagen IV. In kind it is cell-based. The settings on record: only α1β1 mediates adhesion. The method, then: The α1β1 integrin specific inhibitory effect of obtustatin was confirmed using human melanoma MV3 cells. MV3 cells express both the α1β1 and α2β1 integrins. MV3 cells adhere strongly to collagen IV through α1β1 and α2β1 integrin-mediated interactions.
Collagen IV (0.2 μg/well) in 0.02 M acetic acid was immobilized overnight at 4° C. on a 96-well plate. Plates were then blocked with 1% (w/v) BSA (bovine serum albumin) in Hank's Balanced Salt Solution (HBSS) containing 3 mM Mg^2+ at room temperature for 1-2 hours to prevent cells from non-specifically binding to the plates. α1K562 cells were labeled by incubation with 12.5 μM 5-chloromethylfluorescein diacetete (CMFDA) in HBSS for 15 minutes at 37° C. CMFDA labeled MV3 cells were then pelleted, washed and resuspended in HBSS buffer containing 3mM Mg^2+ and 1% (w/v) BSA. 1×10^5 cells were then added to each well in the presence (10 μg/ml) or absence of the α1 integrin subunit specific AJH10 mAb and α2 integrin subunit specific P1E6 mAb as indicated in FIG. 5. Obtustatin was added at the concentrations indicated in FIG. 5 simultaneously with the mAbs. The plates were then incubated at 37° C. for 30 minutes and washed three times with HBSS containing 3 mM Mg^2+ and 1% (w/v) BSA to remove unbound cells. […] Fluorescent CMFDA released by lysis of adherent cells in a given well was read using a Cytofluor 2350 fluorescence plate reader.

Test [4] deals with T2, α1β1 integrin. As to the kind of experiment: adhesion of HS.939T cells to collagen IV. The settings on record: α1β1, Coll IV. In kind it is cell-based.
For test [5], the target named is T2, α1β1 integrin. As to the kind of experiment: adhesion of α1K562 cells to immobilized collagen IV. In kind it is cell-based. The following applies: α1K562 cells, α1β1, collagen IV. The method, then: Collagen IV (0.2 μg/well) in 0.02 M acetic acid was immobilized by incubation overnight at 4° C. on a 96-well plate. Plates were then blocked with 1% (w/v) BSA (bovine serum albumin) in Hank's Balanced Salt Solution (HBSS) containing 3 mM Mg^2+ at room temperature for 1-2 hours to prevent cells from non-specifically binding to the plates. α1K562 cells were labeled by incubation with 12.5 μM 5-chloromethylfluorescein diacetete (CMFDA) in HBSS for 15 minutes at 37° C. CMFDA labeled α1K562 cells were then pelleted, washed and resuspended in HBSS buffer containing 3 mM Mg^2+ and 1% BSA. […] The plates were washed three times with HBSS containing 3 mM Mg^2+ and 1% (w/v) BSA to remove unbound cells. Bound cells were lysed using 0.5% (v/v) Triton X-100 in H2O. Fluorescent CMFDA released by lysis of adherent cells in a given well was read using a Cytofluor 2350 fluorescence plate reader.
as §1, §2

The target of test [6] is T3, α1β1 integrin (Mus musculus, UniProt P09055+Q3V3R4).
T3 construct: endogenous in cells; host or cells: B16F10 cells
As to the kind of experiment: adhesion of B16F10 cells to collagen IV. Type of test: cell-based. The following applies: α1β1, Coll IV.

T2 sequence (P56199 29-1179): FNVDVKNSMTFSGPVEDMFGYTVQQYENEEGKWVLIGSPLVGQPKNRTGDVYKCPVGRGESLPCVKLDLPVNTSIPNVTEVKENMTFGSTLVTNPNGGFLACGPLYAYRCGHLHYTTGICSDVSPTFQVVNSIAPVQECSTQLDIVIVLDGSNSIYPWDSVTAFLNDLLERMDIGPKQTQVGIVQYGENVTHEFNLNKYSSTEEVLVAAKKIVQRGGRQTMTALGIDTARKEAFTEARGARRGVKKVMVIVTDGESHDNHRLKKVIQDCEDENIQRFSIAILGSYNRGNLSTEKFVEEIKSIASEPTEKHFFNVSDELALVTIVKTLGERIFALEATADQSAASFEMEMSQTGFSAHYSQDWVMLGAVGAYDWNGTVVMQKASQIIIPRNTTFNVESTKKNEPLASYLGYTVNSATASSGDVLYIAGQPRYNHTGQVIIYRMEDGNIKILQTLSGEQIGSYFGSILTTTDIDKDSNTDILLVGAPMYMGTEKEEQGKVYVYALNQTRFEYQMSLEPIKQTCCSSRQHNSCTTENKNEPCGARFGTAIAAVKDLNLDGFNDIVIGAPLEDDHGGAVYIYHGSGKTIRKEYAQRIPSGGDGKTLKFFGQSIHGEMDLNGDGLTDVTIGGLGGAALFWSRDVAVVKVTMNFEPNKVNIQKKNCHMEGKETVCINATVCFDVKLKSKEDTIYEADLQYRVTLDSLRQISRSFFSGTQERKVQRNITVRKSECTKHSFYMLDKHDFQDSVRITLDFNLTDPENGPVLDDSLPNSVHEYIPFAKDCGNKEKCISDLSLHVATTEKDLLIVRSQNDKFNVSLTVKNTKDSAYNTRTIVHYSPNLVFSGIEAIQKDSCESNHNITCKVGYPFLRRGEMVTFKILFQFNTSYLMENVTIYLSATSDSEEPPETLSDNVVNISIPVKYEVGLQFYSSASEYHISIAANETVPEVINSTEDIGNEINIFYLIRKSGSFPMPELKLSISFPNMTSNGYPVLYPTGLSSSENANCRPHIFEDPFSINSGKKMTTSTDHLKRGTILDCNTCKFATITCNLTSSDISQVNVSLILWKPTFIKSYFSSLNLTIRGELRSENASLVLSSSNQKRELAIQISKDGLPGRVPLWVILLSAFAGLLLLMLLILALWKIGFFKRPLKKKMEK
T2 sequence (P05556 21-798): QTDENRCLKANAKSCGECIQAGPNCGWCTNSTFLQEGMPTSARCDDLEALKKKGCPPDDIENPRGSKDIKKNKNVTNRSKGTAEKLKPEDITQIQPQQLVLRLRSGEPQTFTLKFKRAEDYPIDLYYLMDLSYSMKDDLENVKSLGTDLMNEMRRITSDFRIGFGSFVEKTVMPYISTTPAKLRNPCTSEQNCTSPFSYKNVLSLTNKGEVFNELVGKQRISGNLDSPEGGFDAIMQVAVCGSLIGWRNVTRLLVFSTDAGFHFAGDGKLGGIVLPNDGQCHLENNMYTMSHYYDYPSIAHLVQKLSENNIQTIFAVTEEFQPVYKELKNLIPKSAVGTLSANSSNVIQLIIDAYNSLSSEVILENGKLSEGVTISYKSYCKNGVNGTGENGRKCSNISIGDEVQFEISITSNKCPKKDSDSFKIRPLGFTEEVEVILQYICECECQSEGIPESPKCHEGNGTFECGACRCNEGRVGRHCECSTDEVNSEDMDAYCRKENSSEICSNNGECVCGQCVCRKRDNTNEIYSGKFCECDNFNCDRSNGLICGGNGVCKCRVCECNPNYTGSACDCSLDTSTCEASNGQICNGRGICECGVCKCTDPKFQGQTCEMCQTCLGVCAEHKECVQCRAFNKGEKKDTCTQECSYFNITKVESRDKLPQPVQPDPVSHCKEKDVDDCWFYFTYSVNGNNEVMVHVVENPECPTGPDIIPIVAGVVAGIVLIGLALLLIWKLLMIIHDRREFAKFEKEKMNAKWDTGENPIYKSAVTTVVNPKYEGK
T1 sequence (P08648 42-894 limits assumed): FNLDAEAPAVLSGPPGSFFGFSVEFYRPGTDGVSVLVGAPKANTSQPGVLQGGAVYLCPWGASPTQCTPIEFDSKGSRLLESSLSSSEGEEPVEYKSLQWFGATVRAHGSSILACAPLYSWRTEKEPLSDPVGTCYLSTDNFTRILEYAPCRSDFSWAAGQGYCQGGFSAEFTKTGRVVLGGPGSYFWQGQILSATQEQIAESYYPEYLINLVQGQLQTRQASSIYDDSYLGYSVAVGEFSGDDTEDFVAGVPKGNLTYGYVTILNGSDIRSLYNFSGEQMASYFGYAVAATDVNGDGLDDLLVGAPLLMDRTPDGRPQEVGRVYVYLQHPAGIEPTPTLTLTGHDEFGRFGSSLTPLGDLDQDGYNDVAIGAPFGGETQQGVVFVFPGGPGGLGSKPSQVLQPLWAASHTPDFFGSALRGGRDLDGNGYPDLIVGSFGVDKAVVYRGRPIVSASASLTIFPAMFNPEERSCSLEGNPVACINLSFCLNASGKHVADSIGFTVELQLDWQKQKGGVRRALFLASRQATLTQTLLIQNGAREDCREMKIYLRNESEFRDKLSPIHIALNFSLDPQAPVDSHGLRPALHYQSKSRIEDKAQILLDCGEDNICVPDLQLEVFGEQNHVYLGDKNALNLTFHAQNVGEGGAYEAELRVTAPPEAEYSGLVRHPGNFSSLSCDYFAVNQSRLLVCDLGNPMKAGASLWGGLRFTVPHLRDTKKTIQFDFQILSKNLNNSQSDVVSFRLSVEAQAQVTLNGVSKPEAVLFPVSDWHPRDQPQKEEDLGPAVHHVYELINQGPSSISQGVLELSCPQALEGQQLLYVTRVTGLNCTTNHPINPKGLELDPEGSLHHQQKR
T1 sequence (P08648 895-1049 partner limits assumed): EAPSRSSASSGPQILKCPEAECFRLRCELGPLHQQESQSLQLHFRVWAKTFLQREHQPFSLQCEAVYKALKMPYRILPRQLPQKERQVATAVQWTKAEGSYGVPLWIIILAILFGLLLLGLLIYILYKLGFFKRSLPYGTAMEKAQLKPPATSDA
T1 sequence (P05556 21-798): as the sequence (P05556 21-798) above
T3 sequence (Q3V3R4 29-1179): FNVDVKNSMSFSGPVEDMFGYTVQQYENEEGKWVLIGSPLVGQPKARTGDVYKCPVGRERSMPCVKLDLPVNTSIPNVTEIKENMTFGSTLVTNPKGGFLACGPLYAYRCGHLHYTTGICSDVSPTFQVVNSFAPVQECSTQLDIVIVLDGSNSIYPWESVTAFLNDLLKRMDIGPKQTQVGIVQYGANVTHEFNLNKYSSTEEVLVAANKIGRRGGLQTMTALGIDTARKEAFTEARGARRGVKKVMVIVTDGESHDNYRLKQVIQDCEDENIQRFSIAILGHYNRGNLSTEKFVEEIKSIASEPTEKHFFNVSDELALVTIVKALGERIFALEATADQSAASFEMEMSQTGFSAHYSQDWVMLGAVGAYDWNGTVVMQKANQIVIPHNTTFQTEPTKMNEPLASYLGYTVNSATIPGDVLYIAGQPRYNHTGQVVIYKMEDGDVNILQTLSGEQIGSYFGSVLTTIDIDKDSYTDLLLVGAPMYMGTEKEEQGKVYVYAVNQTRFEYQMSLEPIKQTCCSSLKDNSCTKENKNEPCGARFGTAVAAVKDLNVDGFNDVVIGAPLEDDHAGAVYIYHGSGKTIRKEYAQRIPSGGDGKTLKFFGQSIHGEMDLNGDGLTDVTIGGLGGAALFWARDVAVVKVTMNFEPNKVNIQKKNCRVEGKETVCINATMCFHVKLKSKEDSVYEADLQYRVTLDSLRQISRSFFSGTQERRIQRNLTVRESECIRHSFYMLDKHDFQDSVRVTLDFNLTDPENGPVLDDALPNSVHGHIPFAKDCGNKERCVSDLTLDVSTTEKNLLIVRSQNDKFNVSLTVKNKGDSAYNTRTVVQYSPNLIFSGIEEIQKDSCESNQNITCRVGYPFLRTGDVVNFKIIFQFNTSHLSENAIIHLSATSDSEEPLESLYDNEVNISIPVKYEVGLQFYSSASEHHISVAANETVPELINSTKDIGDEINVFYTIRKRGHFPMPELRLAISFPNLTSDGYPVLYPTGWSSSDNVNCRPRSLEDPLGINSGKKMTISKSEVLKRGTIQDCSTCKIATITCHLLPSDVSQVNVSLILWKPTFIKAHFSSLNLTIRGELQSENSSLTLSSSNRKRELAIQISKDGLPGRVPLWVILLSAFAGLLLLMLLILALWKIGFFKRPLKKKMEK
T3 sequence (P09055 21-798): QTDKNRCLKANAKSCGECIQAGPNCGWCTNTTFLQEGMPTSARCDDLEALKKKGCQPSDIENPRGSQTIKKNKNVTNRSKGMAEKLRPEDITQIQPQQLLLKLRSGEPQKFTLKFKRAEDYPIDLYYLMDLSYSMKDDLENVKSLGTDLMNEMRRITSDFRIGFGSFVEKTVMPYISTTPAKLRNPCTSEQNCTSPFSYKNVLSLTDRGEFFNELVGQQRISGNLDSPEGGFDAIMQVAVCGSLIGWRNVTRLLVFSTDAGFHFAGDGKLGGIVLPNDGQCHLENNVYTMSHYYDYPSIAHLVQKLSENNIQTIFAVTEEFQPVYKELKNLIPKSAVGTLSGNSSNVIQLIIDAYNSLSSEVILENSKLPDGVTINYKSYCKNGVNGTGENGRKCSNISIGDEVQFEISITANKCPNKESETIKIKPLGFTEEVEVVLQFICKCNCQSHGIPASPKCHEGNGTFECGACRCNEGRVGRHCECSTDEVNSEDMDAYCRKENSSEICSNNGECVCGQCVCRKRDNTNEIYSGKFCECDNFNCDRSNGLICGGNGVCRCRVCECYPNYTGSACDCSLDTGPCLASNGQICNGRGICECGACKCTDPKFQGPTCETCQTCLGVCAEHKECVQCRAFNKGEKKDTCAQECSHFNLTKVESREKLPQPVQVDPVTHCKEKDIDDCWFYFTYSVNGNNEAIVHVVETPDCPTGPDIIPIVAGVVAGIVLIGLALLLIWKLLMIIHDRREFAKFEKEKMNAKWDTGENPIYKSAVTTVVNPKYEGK

As to “Obtustatin (CTTGPCCRQCKLKPAGTTCWKTSLTSHYCTGKSCDCPLYPG)”, in test [1], the “growth (BrdU incorporation)” value is “not the HS.939T melanoma cells”. Besides, the IC50 in test [2] was greater than 10000 nM; in test [4], 0.1 nM; in test [5] it was 2 nM; in test [6] it was 0.2 nM. Also, the “inhibition of adhesion of MV3 cells to collagen IV” value in test [3] was “inhibited by significantly lower obtustatin concentrations”.
